Source: patent US20240245805A1 (Orna Therapeutics, Inc., priority 2020, published 2024)

B1: EV A114 (nucleic acid, listed as Enterovirus sp.)
chain: TGTGCGCCTGTTTTGAAACCCCCTCCCCCAACTCGAAACGTAGAAGTAATGTACACTACTGATCAGTAGCAGGCGTGGCGCACCAGCCATGTCTCGATCAAGCACTTCTGTTTCCCCGGACTGAGTATCAATAGACTGCTCACGCGGTTGAAGGTGAAAACGTCCGTTACCCGGCTAACTACTTCGAGAAACCTAGTAGCACCATAGAAACTGCAGAGTGTTTCGCTCAGCACTTCCCCCGTGTAGATCAGGTCGATGAGTCACTGCAATCCCCACGGGTGACCGTGGCAGTGGCTGCGTTGGCGGCCTGCCTATGGGGCAACCCATAGGACGCTCTAAGGTGGACATGGTGTGAAGAGTCTATTGAGCTAGTTAGTAGTCCTCCGGCCCCTGAATGCGGCTAATCCTAACTGTGGAGCGCATACTCCCAAACCAGGGAGCAGTGCGTCGTAACGGGCAACTCCGCAGCGGAACCGACTACTTTGGGTGTCCGTGTTTCCTTTTATTCCTATACTGGCTGCTTATGGTGACAATTGAGAGATTGTTACCATATAGCTATTGGATTGGCCATCCAGTGTGTAATAGAGCAATCATTTACCAATTTGTTGGATTTACTCCATTAACCCACACGTCTCTCAACACACTACATTTCATCTTACTACTGAACACTAGAAA
modifications: lipid formulation
B2: Hunnivirus A1 (nucleic acid, listed as Hunnivirus sp.)
DNA: TAACGTTTGGCAAGAACCCTCACCTGTCAATTGGGACCACCACTTTCAGTGACCCCATGCGAAGTAGTGAGAGAGAATAAGCTTTCTTACCCTTCATTTGTGAACCCTTCAGTCGAAGCCGCTTGGAATAAGATAGGAGGAAAAGTTCATTCTAAATGGAGTGAAACATGTACTTCAGAATTTCTAGCACGCGCTGGGCTTTCTTGCGTGTGACGGCACTGTCTTGCCGGAGCTCTCCACACTGACACCCCACGCTTGTGGACCTTGGTGGCAGATGACAACACTGCAGCTGGAATTGAGTGTCTGGTACACTCTGTGTAACAGTGAAAACAATGTGATCACTTCGGTGAGCTAGTAGCCTGTGGACCAACAACTGGTAACAGTTGCCTCAGGGGCCAAAAGCCACGGTGTTTACAGCACCCTACTGGTTTGATTGGAGCAATCCAAGATGTCACAGAGTTAGTAATTGCCAAGCAGTCCGTACTGGTATCTTGACATACCGTGCAGTTTTGGATAGTGAAGGATGCCCTGACGGTACCCATAGGTAACAAGTGACACTATGGATCTAAGCAGGGGCTCACTCTACGCTGCTTTACAGCTGGCTGTGAGTTAAAAAACGTCTAGCTATCCACAACCTAGGGGACTAGGTTTTCCTTTTATTTAGATTACAATTAT
B3: Taura Syndrome Virus: "an IRES is an IRES sequence of Taura syndrome virus" (nucleic acid)
DNA: CTTTAAAAGTCGTGCGTGGCTTCACCACGCACGATCAGTACTATCAGTTAACCACTCTTGAATATGCTCAATGACCCTATTCAACACTGGTGTCTCTTAGTACATTATTTTAGCACTTAACGTGCATGAGTTTTGCCCATTTCTTTCAAAAAAATGAGTATTCGAGGAGACGTCCCGCTCCCCGTCTTATTTCAACCGTAGACTCGACATCTATTGGTGGACATTTAATTCCAGTCGCCGTAAGTTGCTTCTGCCCCGCGCTATATTTTCTTATACTTATGGTTCTATAGGTCTGGTTTAAAACGTAAATAGACGGCCCACAAACTATAGAACGCGTACCCGGAACGCCAATCCCGGATAAGTCCCTGGATATATAGATGCACCGCAATATAAGCCTGCAGACTGTCTCATATACT
modifications: Taura Syndrome Virus
B4: Tottorivirus (nucleic acid, listed as Tottorivirus sp.)
DNA: CCCCTTTACGTAACTGCAACTTAAAGAGTACCCTACTGCATTGGATGTGTGGTAAACTTTTACGCACACATTTGTAGTAGTGTTAGTTATGTTCTACCTAATGAGTATGCATGCACCCGTCGAAACACGCTTGTGATAAGATAGGTGAGTCCATGTGACTAATCTCATTAAGATAAATAAGCACCCTACAACGCACGGCACGCTCGTGTCTTCCGTGCGGGGCCGGGACAACAGCGGCCTAAATCTTCTAGGTGACCACCATGCTTTTGGGACTATGGCACCACTGTGGACGTGAGTACCTGGCAGTAAGTCTGTGAAAAGATGGAAGGTGTCCCAAGCTATGGGGCGTATGCATATAGCCTGCGGAACAAACAACGGCGACGTTGTCCCCAGGGCCCAAAAGGCACGTGGATAAGATCCACCTATATGTTTACCCCATAGTGTAAGTCACTGGAAGTCCTAGTAATGGATGTCTGGAGTAAGGCTCACGGGGTAGGGCGAAGGATGCCCAGAAGGTACCCGTAGGTAACCTTAAGAGACTATGGATCTGATCTGGGGACCGGATGGCGCCATCACCATGACGTGGAGGCCGGTTTAAAAAACGTCTAAGCCCGACCAACAACCTAGGGGACTAGGTTTTCCTTTTTTATTCATGTATGACGTT
B5: VHEV (nucleic acid)
DNA: AATTCCTTCTTCCTTTCTCCTTGGACCTCGGTCCCCCGGTCTAAGCCGCTCGGAATATGACAGGGTTATTTTCACCTCTTCTCTCTTCTACTTCATAGTGTTCTATACTATGAAAGGGTATGTGTCGCCCCTTCCTTCTTGGAGAACGTGCGTGGCGGTCTTTCCGTCTCTCGAAAAACGTGCGTGCGACATGCAGAGTAACGCAAAGAAAGCAGTTCTTGGTCTAGCTCTGGTGCCCACAAGAAAACAGCTGTAGCGACCACACAAAGGCAGCGGAAACCCCCTCCTGGTAACAGGAGCCTCTGCGGCCAAAAGCCACGTGGATAAGATCCACCTTTGTGTGCGGTGCAACCCCAGCACCCTGGTTTCTTGGTGACACCTTAGTGAACCCTCGAATGGCAATCTCAAGCGCCTCTGTAGGAAAGCCAAGAATGTCCAGGAGGTACCCCTTCCTCATGGAGGGATCTGACCTGGAGACACATCACACGTGCTATACACTTGTGCTTGTGTTTAAAAATTGTCACAGCTTTCCCAAACCAAGTGGTCTTGGTTTTCCCTTAACTTCGAAAAGTCACTATGGCCTGCAAACATGGATACCCAGACGTGTGCCCT
modifications: source: /note="Description of Unknown: VHEV sequence"
B6: TRV NGS910 (nucleic acid)
DNA: ATGCGACGTGGTTGGAGATTAAACCGACTCCGACGAAAGTGCTATCATGCCTCCCCGATTATGTGATGTTTTCTGCCCTGCTGGGCGGAGCATTCTCGGGTTGATACACCTTGAATCCTTCATCCTTGGACCTCAGGTCCCCCGGTCTAAGCCGCTTGGAATACGACAGGGTTATTTTCCAATCTTCTCCTTTCTACTTTCATGAGTCCTATTCATGAAAAGGGTCTGTGCTGCCCCTTCCTTCTTGGAGAATCTGCGCGGCGGTCTTTCCGTCTCTCGAAAAGCGCAGATGCAGCATGCTGGAACCGGTGAAGAAAACAGTTCTTTGTGGAAACTTAGAGCAGACATCGAAACAGCTGTAGTGACCTCACAGTAGCAGCGGAACCCCCTCCTGGTAACAGGAGCCTCTGCGGCCAAAAGCCCCGTGGATAAGATCCACTGCTGTGAGCGGTGCAACCCCAGCACCCTGGTTCGATGGTTGTTCTCTGTGGAACCAGAGAATGGTCTTTCTCAAGCCCTCCAGTAGAGAAGCCAAGAATGTCCTGAAGGTACCCCGCATGCGGGATCTGATCAGGAGACCAATCGTCAGTGCTTTACACTGGCGCTTTGGTTTAAAAACTGTCACAGCTTCTCCAAACCAAGTGGTCTTGGTTTTCACTTTTATCAAACTGTTTC
modifications: lipid formulation; source: /note="Description of Unknown: TRV NGS910 sequence"
B7: GFTV (nucleic acid)
chain: ATGGGGAAGGGTATGACGTGCCCCTTCCTTCTTCGGAGAACTCGCTCTAGTGGTCTTTCCACTTCTGGAAAAGAGTGAGTGCACGTGATCAGGACCGTCGAAGACGACAAATACCTGGTGCTCTATCTCATAGACGTTTCACAGCTGTAGCGACCCCTCAGTAGCAGCGGAAGCCCCCTCCTGGTGACAGGAGCCTCTGCGGCCAAAAGCCACGTGGATAAGATCCACTGCTGAGGGCGGTGCGACCCTAGCACCCTGTGATGCATACTAGTTGTAGCGTGCCGGACTATTGGTCTGTCATAAGACACCTGATAGAGAGACCAAGAATGTCCTGGAGGTACCCCGCGTGCGGGATCTGACCAGGAGACCATTGCCCAATGCTTTACAACGGGTCTATGGTTTAAAAACTGTCGCAGTCTCTCCAAACCAAGTGGTCTTGGTTTTCAATTACTTTGAATATTTCACT
modifications: lipid formulation; source: /note="Description of Unknown: GFTV sequence"
B8: Hunnivirus A2 (nucleic acid, listed as Hunnivirus sp.)
DNA: ACAGTTTTTGACAAGGACCCTCACCTGTCAATCGGGACCACCACTTTCAGTGACCCCGTGCGAAGTGTTGAGAGAAAGTGAGCTTTCTTACCCTTCATTTGTGAACCCTTCAGTCGAAGCCGCTTGGAATAAGATGGAAGGAAATGTTCATTCTAAATGGAGTGAAACATATACTTAATTTCCAGTGTTTAGTGGTCTTTCCACTAGACAACGGCACTGTCTTGCCGGAACTCTACACACCAACATTCCACGCTTGTGGGACTCAAATGTTGGATGACACAGTTGTAGCTGGAACTGAGTGTTTAGTGCACTCTGTGTAACAGTGAAAACAATGTGATCACTTCGGTGGGCTAGTAGCCTGTGGACTAACAACTGGTAACAGTTGCCTCAGGGGCCAAAAGCCACGGTGTTAACAGCACCCTACTAGTTTGATTGGAGCAATCCATGATGTTACAGAGTTAGTAACTGCCAAACAGATTGTACTGGTATCTTGGCATACCGTGCAACTTAGGATAGTGAAGGATGCCCTGGCGGTACCCATAGGTAACAAGTGACACTATGGATCTAAACAGGGGCTCACTCTACGTTGCTTTACAACTAGCTGTGAGTTAAAAAACGTCTAACTATCCACAACCTAGGGGACTAGGTTTTCCTTTTTATTTTTATACACAACTA
B9: Ia Io (nucleic acid)
DNA: GGTGTCCGGGTGTGTGGGATAGACCCAGATGTGCAGTGGATGCGAGCATTTGAGTCAGAGTAGGAGCAAGCCCAGGGGCAAAGGGACCACATTGTGTATCCCGAATGAAGGATCGAGATTTCTCTCCTCATTACCCGGTGTCTTGTCACTGTTGGGGGGGCCCAACAGTCTTAGTCCTATACTGCCTGATAGGGTCGCGGCTGGCCGGACTCAAGTGCTATAGTCAGTTGATTTTCACTC
modifications: source: /note="Description of Unknown: Ia Io sequence"

System: HEK293 cells
Type: cell-based, human
Conditions: circular RNA encoding Gluc with the listed IRES (UTR truncated to 675 nt) transfected into HEK293 cells; supernatant after 24 hours

First: B1
Second: B2
The “Expression (luminescence from secreted Gluc protein)” value (“Expression” below) of the first is higher: 1.50E+08 for the first, 1.61E+06 for the second.

First: B3
Second: B4
The “Expression” value of the first is lower: 8.30E+05 for the first, 2.76E+07 for the second.

First: B5
Second: B6
The “Expression” value of the first is higher: 1.74E+08 for the first, 3.84E+07 for the second.

First: B7
Second: B8
The “Expression” value of the first is lower: 1.23E+06 for the first, 6.38E+06 for the second.

For B9, the “Expression” value was 1.35E+06.
